Test results as given in paper PMC6955894, “Development of Aptamer-Based TID Assays Using Thermophoresis and Microarrays”.

Assays:
VEGF-A165 [1] = molecular target: T1, VEGF-A165 (human, UniProt P15692-4 27-191); test: MST; TBSET: 10 mM Tris, 100 mM NaCl, 50 mM KCl, 0.05 mM EDTA, 0.05% Tween 20, pH 7; MST with 25 nM aptamer, 20 min at 20 C, read at room temperature; microarray in TBSETB (TBSET + 1% BSA), 1 h for the co-incubation; conditions: protein: recombinant, chain copies: 2
alpha-chymotrypsin [2] = molecular target: T2, alpha-chymotrypsin (UniProt P00766;P00766;P00766 1-13;16-146;149-245); test: capillary-scan TID (competition); up to 7.5 uM; complement did not dissociate; TBSET: 10 mM Tris, 100 mM NaCl, 50 mM KCl, 0.05 mM EDTA, 0.05% Tween 20, pH 7; MST with 25 nM aptamer, 20 min at 20 C, read at room temperature; microarray in T
alpha-chymotrypsin [3] = molecular target: T2, alpha-chymotrypsin; test: microarray TID (competition); 1 uM protein, 1000 pM cV7t1-Cy5: no decrease; TBSET: 10 mM Tris, 100 mM NaCl, 50 mM KCl, 0.05 mM EDTA, 0.05% Tween 20, pH 7; MST with 25 nM aptamer, 20 min at 20 C, read at room temperature; microarray in T
VEGF-A165 [4] = molecular target: T1, VEGF-A165; test: MST; no binding curve over 5 fluorescence units; TBSET: 10 mM Tris, 100 mM NaCl, 50 mM KCl, 0.05 mM EDTA, 0.05% Tween 20, pH 7; MST with 25 nM aptamer, 20 min at 20 C, read at room temperature; microarray in TBSETB (TBSET + 1% BSA), 1 h for the co-incubation; conditions: protein: recombinant; chain copies: 2; label: 3' FITC

T1 sequence (P15692 other isoform, or with tags, fused parts or gaps): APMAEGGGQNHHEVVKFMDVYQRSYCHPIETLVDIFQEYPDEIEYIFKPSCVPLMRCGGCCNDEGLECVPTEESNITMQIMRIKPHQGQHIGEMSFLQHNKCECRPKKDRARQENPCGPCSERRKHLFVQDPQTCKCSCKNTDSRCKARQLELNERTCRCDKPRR

Q: How did the Kd (VEGF-A165 [1]; label: 3' Cy5, G-quadruplex with three G-quartets) turn out when TGTGGGGGTGGACGGGCCGGGTAGATAGTATGTGCAATC (structured_DNA) [V7t1-Cy5] was run?
A: 201 ± 28 nM

Q: With TGTGGGGGTGGACGGGCCGGGTAGATAGTATGTGCATTC (structured_DNA) [V7t1-FITC] as the binder, how does the Kd (VEGF-A165 [1]; label: 5' FITC, G-quadruplex with three G-quartets) read?
A: 155 ± 55 nM

B1: V7t1-FITC/cV7t1-Dabcyl (mixed)
DNA 1: TGTGGGGGTGGACGGGCCGGGTAGATAGTATGTGCATTC
DNA 2: CCGTCCACCCCC
modifications: 3' Dabcyl quencher on strand 2
Q: Does B1 bind (alpha-chymotrypsin [2])?
A: no binding

B2: V7t1-NH2/cV7t1-Cy5 (mixed)
DNA 1: TGTGGGGGTGGACGGGCCGGGTAGATAGTATGTGCATTC
DNA 2: CCGTCCACCCCC
modifications: 3' NH2 on strand 1, immobilized on aldehyde slide
Q: Does B2 bind (alpha-chymotrypsin [3])?
A: no binding

Q: With ATACCAGTCTATTCAATTGGGCCCGTCCGTATGGTGGGTGTGCTGGCCAG (ssDNA) [Del5-1-Cy5] as the binder, how does the Kd (VEGF-A165 [1]; label: 3' Cy5) read?
A: 47 ± 18 nM

Q: Does CACTACAGAGGTTGCGTCTGTCCCACGTTGTCATGGGGGGTTGGCCTG (ssDNA) [Syl3C-FITC] bind (VEGF-A165 [4])?
A: no binding
